Consider one substance from article PMC9772344.

What all share (settings): transfected HeLa cells; n = 3 per group; parent: est. 1.0; read off a plot
Assay [1] concerns the target stromal-interacting molecule 1 (STIM1) (UniProt Q13586). As to the kind of experiment: Co-IP (GLT-1 capture antibody, immunoblot for STIM1, band quantification). In general terms: A western blot detects proteins with antibodies after separation by electrophoresis.
A further assay concerns the target Orai1 (UniProt Q96D31). The assay is described as follows: Co-IP (GLT-1 capture antibody, immunoblot for Orai1, band quantification).
Assay [2] concerns the target stromal-interacting molecule 1 (STIM1) (UniProt Q13586). The assay is described as follows: Co-IP (STIM1 capture antibody, immunoblot for GLT-1, band quantification).

glutamate transporter GLT-1 (excitatory amino acid transporter 2, EAAT2), WT plasmid, sequence (P43006 whole entry, stated change not applied): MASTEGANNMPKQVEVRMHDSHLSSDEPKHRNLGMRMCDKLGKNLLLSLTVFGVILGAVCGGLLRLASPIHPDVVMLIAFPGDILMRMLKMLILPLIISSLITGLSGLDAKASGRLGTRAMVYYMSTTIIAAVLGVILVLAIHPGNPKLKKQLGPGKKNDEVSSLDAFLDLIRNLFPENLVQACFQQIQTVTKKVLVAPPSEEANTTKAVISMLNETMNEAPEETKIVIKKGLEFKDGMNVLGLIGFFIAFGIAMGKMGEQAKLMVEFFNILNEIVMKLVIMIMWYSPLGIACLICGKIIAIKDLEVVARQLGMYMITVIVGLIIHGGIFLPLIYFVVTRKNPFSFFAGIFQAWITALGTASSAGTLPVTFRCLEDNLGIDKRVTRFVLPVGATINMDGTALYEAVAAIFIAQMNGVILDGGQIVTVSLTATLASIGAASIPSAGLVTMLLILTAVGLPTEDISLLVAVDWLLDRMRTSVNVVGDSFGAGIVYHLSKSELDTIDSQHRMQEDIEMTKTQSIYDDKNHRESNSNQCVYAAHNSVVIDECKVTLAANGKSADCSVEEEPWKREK
stromal-interacting molecule 1 (STIM1), sequence (Q13586 23-685): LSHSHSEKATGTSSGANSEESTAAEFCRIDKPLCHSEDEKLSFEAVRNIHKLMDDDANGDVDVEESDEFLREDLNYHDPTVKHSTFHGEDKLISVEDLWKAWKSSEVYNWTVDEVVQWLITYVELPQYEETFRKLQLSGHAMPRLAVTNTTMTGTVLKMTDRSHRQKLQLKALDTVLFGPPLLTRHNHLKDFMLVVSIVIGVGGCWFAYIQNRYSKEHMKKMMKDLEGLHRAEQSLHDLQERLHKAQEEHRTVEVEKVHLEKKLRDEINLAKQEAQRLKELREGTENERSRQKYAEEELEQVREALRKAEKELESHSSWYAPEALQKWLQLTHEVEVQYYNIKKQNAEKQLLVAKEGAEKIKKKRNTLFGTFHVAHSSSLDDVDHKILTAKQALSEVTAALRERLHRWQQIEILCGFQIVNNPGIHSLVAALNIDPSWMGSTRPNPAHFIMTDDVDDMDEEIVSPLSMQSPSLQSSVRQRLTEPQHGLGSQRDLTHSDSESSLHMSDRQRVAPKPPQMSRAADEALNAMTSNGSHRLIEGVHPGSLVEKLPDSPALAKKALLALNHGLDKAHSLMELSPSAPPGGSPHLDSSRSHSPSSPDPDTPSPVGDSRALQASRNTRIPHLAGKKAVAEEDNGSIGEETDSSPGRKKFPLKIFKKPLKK
Orai1, sequence (Q96D31 whole entry): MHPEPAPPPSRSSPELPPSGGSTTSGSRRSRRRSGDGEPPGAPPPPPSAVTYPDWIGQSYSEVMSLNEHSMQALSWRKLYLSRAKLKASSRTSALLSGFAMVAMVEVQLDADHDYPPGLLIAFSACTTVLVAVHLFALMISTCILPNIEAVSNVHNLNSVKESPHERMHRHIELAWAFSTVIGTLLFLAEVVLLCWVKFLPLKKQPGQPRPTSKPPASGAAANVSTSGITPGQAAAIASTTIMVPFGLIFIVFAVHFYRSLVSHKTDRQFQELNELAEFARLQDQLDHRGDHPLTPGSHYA

For the substance “glutamate transporter GLT-1 (excitatory amino acid transporter 2, EAAT2), WT plasmid (from UniProt P43006) P289R”, the figures for the response (relative band intensity) (in assay [1]; with Orai1; in assay [2]) were 0.1, 0.15 and 0.1, respectively.
